Results published in US5691166.

How the values were obtained:
[1] = molecular target: epidermal growth factor (recombinantly synthesized molecule consisting of the first 52 amino acids of the authentic 53 amino acid EGF molecule)
[2] = molecular target: growth hormone releasing factor (recombinantly synthesized as described in EP 206783)
[3] = molecular target: acid-denatured hemoglobin

| intact peptide remaining after 8 h incubation in broth (reverse phase HPLC) [1] [% intact] | intact peptide remaining after 4 h incubation in broth (reverse phase HPLC) [2] [% intact] | Substance | proteinase A activity, ΔOD/µg protein (release of amino acids from acid-denatured hemoglobin, 90 min) (ΔOD/µg protein) [3] |
| --- | --- | --- | --- |
| < 10 | < 10 | proteolytic activity of the cell-free broth from a one-liter fermentation of the HIS4 PEP4 P. pastoris strain G+PAO804H2 | – |
| – | – | Pichia pastoris proteinase A (product of the Pichia PEP4 gene) (enzyme) | 13.1 |
| > 90 | > 60 | proteolytic activity of the cell-free broth from the one-liter fermentation of the pep4 P. pastoris strain p13 | – |
| – | – | Saccharomyces cerevisiae proteinase A (encoded by the S. cerevisiae PEP4 gene) (from UniProt P07267) (enzyme) | 28.1 |
